{
  "source": "patent US20130005646A1",
  "about": "(Novo Nordisk, published 2013)",
  "binders": {"B1": {"name": "N-alpha-[(S)-4-Carboxy-4-(19-carboxynonadecanoylamino)butyryl]-His-[Glu14,Arg17,His35]-pramlintide (peptide)", "peptide": "{C20 diacid-γGlu}-HKCNTATCATQRLAEFLRHSSNNFGPILPPTNVGSHTY-NH2", "modifications": "disulfide 3-8", "SMILES": "CC[C@H](C)[C@H](NC(=O)[C@@H]1CCCN1C(=O)CNC(=O)[C@H](Cc1ccccc1)NC(=O)[C@H](CC(N)=O)NC(=O)[C@H](CC(N)=O)NC(=O)[C@H](CO)NC(=O)[C@H](CO)NC(=O)[C@H](Cc1c[nH]cn1)NC(=O)[C@H](CCCNC(=N)N)NC(=O)[C@H](CC(C)C)NC(=O)[C@H](Cc1ccccc1)NC(=O)[C@H](CCC(=O)O)NC(=O)[C@H](C)NC(=O)[C@H](CC(C)C)NC(=O)[C@H](CCCNC(=N)N)NC(=O)[C@H](CCC(N)=O)NC(=O)[C@@H](NC(=O)[C@H](C)NC(=O)[C@@H]1CSSC[C@H](NC(=O)[C@H](CCCCN)NC(=O)[C@H](Cc2c[nH]cn2)NC(=O)CC[C@H](NC(=O)CCCCCCCCCCCCCCCCCCC(=O)O)C(=O)O)C(=O)N[C@@H](CC(N)=O)C(=O)N[C@@H]([C@@H](C)O)C(=O)N[C@@H](C)C(=O)N[C@@H]([C@@H](C)O)C(=O)N1)[C@@H](C)O)C(=O)N[C@@H](CC(C)C)C(=O)N1CCC[C@H]1C(=O)N1CCC[C@H]1C(=O)N[C@H](C(=O)N[C@@H](CC(N)=O)C(=O)N[C@H](C(=O)NCC(=O)N[C@@H](CO)C(=O)N[C@@H](Cc1c[nH]cn1)C(=O)N[C@H](C(=O)N[C@@H](Cc1ccc(O)cc1)C(N)=O)[C@@H](C)O)C(C)C)[C@@H](C)O"}, "B2": {"name": "N-alpha-[(S)-4-Carboxy-4-(19-carboxynonadecanoylamino)butyryl]-His-His-[Glu14,Arg17,His35]-pramlintide (peptide)", "peptide": "{C20 diacid-γGlu}-HHKCNTATCATQRLAEFLRHSSNNFGPILPPTNVGSHTY-NH2", "modifications": "disulfide 4-9", "SMILES": "CC[C@H](C)[C@H](NC(=O)[C@@H]1CCCN1C(=O)CNC(=O)[C@H](Cc1ccccc1)NC(=O)[C@H](CC(N)=O)NC(=O)[C@H](CC(N)=O)NC(=O)[C@H](CO)NC(=O)[C@H](CO)NC(=O)[C@H](Cc1c[nH]cn1)NC(=O)[C@H](CCCNC(=N)N)NC(=O)[C@H](CC(C)C)NC(=O)[C@H](Cc1ccccc1)NC(=O)[C@H](CCC(=O)O)NC(=O)[C@H](C)NC(=O)[C@H](CC(C)C)NC(=O)[C@H](CCCNC(=N)N)NC(=O)[C@H](CCC(N)=O)NC(=O)[C@@H](NC(=O)[C@H](C)NC(=O)[C@@H]1CSSC[C@H](NC(=O)[C@H](CCCCN)NC(=O)[C@H](Cc2c[nH]cn2)NC(=O)[C@H](Cc2c[nH]cn2)NC(=O)CC[C@H](NC(=O)CCCCCCCCCCCCCCCCCCC(=O)O)C(=O)O)C(=O)N[C@@H](CC(N)=O)C(=O)N[C@@H]([C@@H](C)O)C(=O)N[C@@H](C)C(=O)N[C@@H]([C@@H](C)O)C(=O)N1)[C@@H](C)O)C(=O)N[C@@H](CC(C)C)C(=O)N1CCC[C@H]1C(=O)N1CCC[C@H]1C(=O)N[C@H](C(=O)N[C@@H](CC(N)=O)C(=O)N[C@H](C(=O)NCC(=O)N[C@@H](CO)C(=O)N[C@@H](Cc1c[nH]cn1)C(=O)N[C@H](C(=O)N[C@@H](Cc1ccc(O)cc1)C(N)=O)[C@@H](C)O)C(C)C)[C@@H](C)O"}, "B3": {"name": "N-alpha-[(S)-4-Carboxy-4-(17-carboxyheptadecanoylamino)butyryl]-His-[Glu14,His17,His35]-pramlintide (peptide)", "peptide": "{C18 diacid-γGlu}-HKCNTATCATQRLAEFLHHSSNNFGPILPPTNVGSHTY-NH2", "modifications": "disulfide 3-8", "SMILES": "CC[C@H](C)[C@H](NC(=O)[C@@H]1CCCN1C(=O)CNC(=O)[C@H](Cc1ccccc1)NC(=O)[C@H](CC(N)=O)NC(=O)[C@H](CC(N)=O)NC(=O)[C@H](CO)NC(=O)[C@H](CO)NC(=O)[C@H](Cc1c[nH]cn1)NC(=O)[C@H](Cc1c[nH]cn1)NC(=O)[C@H](CC(C)C)NC(=O)[C@H](Cc1ccccc1)NC(=O)[C@H](CCC(=O)O)NC(=O)[C@H](C)NC(=O)[C@H](CC(C)C)NC(=O)[C@H](CCCNC(=N)N)NC(=O)[C@H](CCC(N)=O)NC(=O)[C@@H](NC(=O)[C@H](C)NC(=O)[C@@H]1CSSC[C@H](NC(=O)[C@H](CCCCN)NC(=O)[C@H](Cc2c[nH]cn2)NC(=O)CC[C@H](NC(=O)CCCCCCCCCCCCCCCCC(=O)O)C(=O)O)C(=O)N[C@@H](CC(N)=O)C(=O)N[C@@H]([C@@H](C)O)C(=O)N[C@@H](C)C(=O)N[C@@H]([C@@H](C)O)C(=O)N1)[C@@H](C)O)C(=O)N[C@@H](CC(C)C)C(=O)N1CCC[C@H]1C(=O)N1CCC[C@H]1C(=O)N[C@H](C(=O)N[C@@H](CC(N)=O)C(=O)N[C@H](C(=O)NCC(=O)N[C@@H](CO)C(=O)N[C@@H](Cc1c[nH]cn1)C(=O)N[C@H](C(=O)N[C@@H](Cc1ccc(O)cc1)C(N)=O)[C@@H](C)O)C(C)C)[C@@H](C)O"}, "B4": {"name": "N-alpha-[(S)-4-Carboxy-4-(17-carboxyheptadecanoylamino)butyryl]-His-[Glu14,Arg17,His35]-pramlintide (peptide)", "peptide": "{C18 diacid-γGlu}-HKCNTATCATQRLAEFLRHSSNNFGPILPPTNVGSHTY-NH2", "modifications": "disulfide 3-8", "SMILES": "CC[C@H](C)[C@H](NC(=O)[C@@H]1CCCN1C(=O)CNC(=O)[C@H](Cc1ccccc1)NC(=O)[C@H](CC(N)=O)NC(=O)[C@H](CC(N)=O)NC(=O)[C@H](CO)NC(=O)[C@H](CO)NC(=O)[C@H](Cc1c[nH]cn1)NC(=O)[C@H](CCCNC(=N)N)NC(=O)[C@H](CC(C)C)NC(=O)[C@H](Cc1ccccc1)NC(=O)[C@H](CCC(=O)O)NC(=O)[C@H](C)NC(=O)[C@H](CC(C)C)NC(=O)[C@H](CCCNC(=N)N)NC(=O)[C@H](CCC(N)=O)NC(=O)[C@@H](NC(=O)[C@H](C)NC(=O)[C@@H]1CSSC[C@H](NC(=O)[C@H](CCCCN)NC(=O)[C@H](Cc2c[nH]cn2)NC(=O)CC[C@H](NC(=O)CCCCCCCCCCCCCCCCC(=O)O)C(=O)O)C(=O)N[C@@H](CC(N)=O)C(=O)N[C@@H]([C@@H](C)O)C(=O)N[C@@H](C)C(=O)N[C@@H]([C@@H](C)O)C(=O)N1)[C@@H](C)O)C(=O)N[C@@H](CC(C)C)C(=O)N1CCC[C@H]1C(=O)N1CCC[C@H]1C(=O)N[C@H](C(=O)N[C@@H](CC(N)=O)C(=O)N[C@H](C(=O)NCC(=O)N[C@@H](CO)C(=O)N[C@@H](Cc1c[nH]cn1)C(=O)N[C@H](C(=O)N[C@@H](Cc1ccc(O)cc1)C(N)=O)[C@@H](C)O)C(C)C)[C@@H](C)O"}},
  "note": "Starred links: 1 amine or outer side, 2 acyl side, 3 side chain; linkers in the order of their positions; H or OH if unused. Positions of bridges follow the written chain, without caps; N, C: chain ends. *: point of attachment. C20 diacid = O=C(O)CCCCCCCCCCCCCCCCCCC(=O)*; C18 diacid = O=C(O)CCCCCCCCCCCCCCCCC(=O)*; γGlu = O=C(O)[C@H](CCC(=O)[*:2])N[*:1]",
  "data": [
    {"molecular_target": "T1, human amylin 3(a) receptor (human calcitonin receptor + RAMP-3) (human, UniProt P30988 25-474; O60896 24-148)", "T1 sequence (looked up) 1": "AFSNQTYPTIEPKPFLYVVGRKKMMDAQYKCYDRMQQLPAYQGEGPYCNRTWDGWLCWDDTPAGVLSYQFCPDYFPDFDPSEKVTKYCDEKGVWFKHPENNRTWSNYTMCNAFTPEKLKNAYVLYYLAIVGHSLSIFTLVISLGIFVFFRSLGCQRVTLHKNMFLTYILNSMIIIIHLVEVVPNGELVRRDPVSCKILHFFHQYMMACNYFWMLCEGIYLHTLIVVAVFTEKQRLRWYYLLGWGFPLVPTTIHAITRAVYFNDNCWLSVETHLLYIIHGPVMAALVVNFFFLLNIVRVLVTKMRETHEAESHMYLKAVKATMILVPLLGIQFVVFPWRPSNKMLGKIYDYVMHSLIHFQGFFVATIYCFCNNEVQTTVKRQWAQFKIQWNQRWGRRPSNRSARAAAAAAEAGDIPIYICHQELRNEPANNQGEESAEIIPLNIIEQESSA", "T1 sequence (looked up) 2": "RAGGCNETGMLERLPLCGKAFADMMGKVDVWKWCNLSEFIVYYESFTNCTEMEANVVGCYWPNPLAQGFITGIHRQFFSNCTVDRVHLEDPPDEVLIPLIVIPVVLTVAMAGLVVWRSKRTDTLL", "assay": "cell-based or functional assay", "units": {"Amylin receptor human EC50": "nM"}, "values": [
      {"binder": "B1", "Amylin receptor human EC50": 0.0935},
      {"binder": "B2", "Amylin receptor human EC50": 0.101},
      {"binder": "B3", "Amylin receptor human EC50": 0.0585},
      {"binder": "B4", "Amylin receptor human EC50": 0.0795}
    ]},
    {"molecular_target": "T2, human calcitonin (a) receptor (human, UniProt P30988 25-474)", "T2 sequence (looked up)": "T1 sequence (looked up) 1", "assay": "cell-based or functional assay", "units": {"CTa receptor human EC50": "nM"}, "values": [
      {"binder": "B1", "CTa receptor human EC50": 0.43},
      {"binder": "B2", "CTa receptor human EC50": 0.615},
      {"binder": "B3", "CTa receptor human EC50": 0.099},
      {"binder": "B4", "CTa receptor human EC50": 0.947}
    ]}
  ]
}
